Measured values reported in PMC10765799.

Columns and labels:
Gal4 AD-FAF1 WT, Q9UNN5 = biological target: T1, Gal4 AD-FAF1 WT, Q9UNN5; test: yeast two-hybrid, quantitative liquid β-galactosidase assay; conditions: chain shown with the change; yeast strain L40; parent: est. 1500000; read off a plot
T1 chain: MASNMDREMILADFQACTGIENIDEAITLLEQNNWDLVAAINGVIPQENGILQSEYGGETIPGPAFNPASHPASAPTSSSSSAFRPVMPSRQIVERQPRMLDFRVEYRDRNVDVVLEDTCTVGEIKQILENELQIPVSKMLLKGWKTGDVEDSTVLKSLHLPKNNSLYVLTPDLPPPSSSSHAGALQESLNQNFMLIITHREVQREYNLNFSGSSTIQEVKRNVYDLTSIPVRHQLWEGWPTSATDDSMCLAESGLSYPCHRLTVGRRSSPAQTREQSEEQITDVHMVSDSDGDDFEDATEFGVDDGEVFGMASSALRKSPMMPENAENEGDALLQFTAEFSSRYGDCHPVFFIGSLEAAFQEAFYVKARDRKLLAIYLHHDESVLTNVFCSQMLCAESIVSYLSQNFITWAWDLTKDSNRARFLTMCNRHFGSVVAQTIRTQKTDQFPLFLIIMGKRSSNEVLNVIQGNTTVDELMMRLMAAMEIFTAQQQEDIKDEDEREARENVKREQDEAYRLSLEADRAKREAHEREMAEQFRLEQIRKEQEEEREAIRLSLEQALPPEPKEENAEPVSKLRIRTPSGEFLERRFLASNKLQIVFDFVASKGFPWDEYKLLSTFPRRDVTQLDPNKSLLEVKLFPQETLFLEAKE

[1] = biological target: T2, Gal4 AD-mSin3A (full-length), Q60520; test: as above; conditions: chain shown with the change; yeast strain L40; parent: est. 60000; read off a plot
T2 chain: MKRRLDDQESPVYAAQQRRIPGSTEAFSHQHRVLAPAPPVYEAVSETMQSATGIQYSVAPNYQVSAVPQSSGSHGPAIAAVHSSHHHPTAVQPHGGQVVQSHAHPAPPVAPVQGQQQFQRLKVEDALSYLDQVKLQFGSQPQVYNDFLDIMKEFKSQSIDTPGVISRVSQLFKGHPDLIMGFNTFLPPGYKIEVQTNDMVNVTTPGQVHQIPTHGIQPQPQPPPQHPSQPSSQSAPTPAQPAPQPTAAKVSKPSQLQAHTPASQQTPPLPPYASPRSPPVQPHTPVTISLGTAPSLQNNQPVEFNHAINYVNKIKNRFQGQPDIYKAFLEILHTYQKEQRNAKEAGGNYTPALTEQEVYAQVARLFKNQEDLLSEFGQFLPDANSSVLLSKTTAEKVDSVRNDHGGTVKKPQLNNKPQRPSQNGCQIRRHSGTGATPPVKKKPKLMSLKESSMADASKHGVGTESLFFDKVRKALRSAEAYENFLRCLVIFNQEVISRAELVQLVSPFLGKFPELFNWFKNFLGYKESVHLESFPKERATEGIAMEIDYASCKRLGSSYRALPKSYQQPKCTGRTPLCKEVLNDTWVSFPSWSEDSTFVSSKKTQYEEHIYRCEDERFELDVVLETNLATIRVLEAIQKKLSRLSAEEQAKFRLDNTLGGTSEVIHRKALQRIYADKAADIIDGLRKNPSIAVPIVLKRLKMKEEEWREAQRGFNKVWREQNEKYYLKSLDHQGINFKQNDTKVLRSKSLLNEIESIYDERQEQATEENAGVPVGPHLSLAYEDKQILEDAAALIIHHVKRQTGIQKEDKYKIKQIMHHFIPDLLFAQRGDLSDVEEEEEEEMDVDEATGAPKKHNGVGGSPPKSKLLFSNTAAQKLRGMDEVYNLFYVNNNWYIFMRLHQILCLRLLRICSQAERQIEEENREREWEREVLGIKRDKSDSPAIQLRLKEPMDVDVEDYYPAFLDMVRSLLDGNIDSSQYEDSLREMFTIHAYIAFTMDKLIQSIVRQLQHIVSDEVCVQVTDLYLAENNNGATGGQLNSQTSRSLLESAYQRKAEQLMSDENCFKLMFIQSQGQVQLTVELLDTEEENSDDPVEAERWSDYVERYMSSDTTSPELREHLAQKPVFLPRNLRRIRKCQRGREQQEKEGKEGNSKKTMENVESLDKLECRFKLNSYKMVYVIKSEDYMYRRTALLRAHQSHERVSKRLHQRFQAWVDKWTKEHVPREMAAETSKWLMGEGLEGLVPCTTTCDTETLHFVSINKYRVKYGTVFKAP

B1: LexA-SAP130 C-terminal region (amino acids 760-1048) WT, Q9H0E3 K794A; K878A; K932A (protein)
chain: APPPSVTVGGSLSSVLGPPVPEIKVAEEVEPMDIMRPVSAVPPLATNTVSPSLALLANNLSMPTSDLPPGASPRKKPRKQQHVISTEEGDMMETNSTDDEKSTAKSLLVAAEKRKSPPKEYIDEEGVRYVPVRPRPPITLLRHYRNPWKAAYHHFQRYSDVRVAEEKKAMLQEIANQKGVSCRAQGWKVHLCAAQLLQLTNLEHDVYERLTNLQEGIIPKKKAATDDDLHRINELIQGNMQRCKLVMDQISEARDSMLKVLDHKDRVLKLLNKNGTVKKVSKLKRKEKV
- response (Gal4 AD-FAF1 WT, Q9UNN5): 43000
- response [1]: 190000
